These results are taken from patent US20060106200A1.

The test deals with full length, processed caspase-9 (residues 1-416) (UniProt P55211). In words: gel filtration chromatography of equi-molar Apaf-1 (1-591) and caspase-9.
Chain of full length, processed caspase-9 (residues 1-416) (P55211 whole entry, form in doubt, the tested form may be a part): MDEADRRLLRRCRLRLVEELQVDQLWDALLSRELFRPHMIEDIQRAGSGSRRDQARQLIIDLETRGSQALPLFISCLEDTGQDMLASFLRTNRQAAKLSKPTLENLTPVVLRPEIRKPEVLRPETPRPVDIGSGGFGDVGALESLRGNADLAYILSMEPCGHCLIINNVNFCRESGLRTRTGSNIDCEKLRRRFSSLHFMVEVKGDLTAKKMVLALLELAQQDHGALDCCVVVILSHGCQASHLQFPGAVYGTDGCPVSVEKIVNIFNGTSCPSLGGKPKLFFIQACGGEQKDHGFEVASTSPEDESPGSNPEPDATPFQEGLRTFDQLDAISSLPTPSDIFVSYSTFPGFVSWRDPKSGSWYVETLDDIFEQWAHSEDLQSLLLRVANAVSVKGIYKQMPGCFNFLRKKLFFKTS

In the case of “soluble Apaf-1 fragment (residues 1-591 of full length Apaf-1) (from UniProt O14727 1-591)”, the apparent molecular mass of the complex peak on gel filtration was 130 kilodaltons.
